Data published in the supplement of paper PMC9112550, “Optimization of the antimicrobial peptide Bac7 by deep mutational scanning” (BMC Biology, 2022).

Test system: Escherichia coli TOP10
Assay: shrunken log2 fold change of peptide-encoding DNA abundance (4.5 h post-induction vs induction); higher = less antimicrobial activity (less host growth inhibition)
Settings: time post-induction: 4.5 h; library: site-saturation at positions 5, 18, 19, 20
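Also: peptides expressed intracellularly from a pBAD plasmid library in pooled LB shake-flask culture, induced with 0.3% L-arabinose, DNA abundance read by NGS, three biological replicates, DESeq2 with apeglm shrinkage.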

| Sequence | shrunken log2 fold change |
| --- | --- |
| RRIRERPPRLPRPRPRPFFMPRP | -0.0808 |
| RRIRERPPRLPRPRPRPFFTPRP | -0.106 |
| RRIRERPPRLPRPRPRPFGAPRP | 0.143 |
| RRIRERPPRLPRPRPRPFGEPRP | -0.122 |
| RRIRERPPRLPRPRPRPFGFPRP | -0.335 |
| RRIRERPPRLPRPRPRPFHCPRP | -0.175 |
| RRIRERPPRLPRPRPRPFHGPRP | -0.0459 |
| RRIRERPPRLPRPRPRPFKHPRP | -0.255 |
| RRIRERPPRLPRPRPRPFKQPRP | -0.0138 |
| RRIRERPPRLPRPRPRPFKWPRP | -0.0223 |
| RRIRERPPRLPRPRPRPFLAPRP | 0.0854 |
| RRIRERPPRLPRPRPRPFLRPRP | -0.401 |
| RRIRERPPRLPRPRPRPFMIPRP | -0.768 |
| RRIRERPPRLPRPRPRPFMYPRP | -0.551 |
| RRIRERPPRLPRPRPRPFQNPRP | 0.02 |
| RRIRERPPRLPRPRPRPFQPPRP | -0.311 |
| RRIRERPPRLPRPRPRPFQYPRP | -0.64 |
| RRIRERPPRLPRPRPRPFRQPRP | 0.198 |
| RRIRERPPRLPRPRPRPFSKPRP | -0.0819 |
| RRIRERPPRLPRPRPRPFTYPRP | -0.0534 |
| RRIRERPPRLPRPRPRPFVPPRP | -0.507 |
| RRIRERPPRLPRPRPRPFVVPRP | -0.0043 |
| RRIRERPPRLPRPRPRPFWAPRP | 0.084 |
| RRIRERPPRLPRPRPRPGAEPRP | 0.372 |
| RRIRERPPRLPRPRPRPGAHPRP | 0.0368 |

| Sequence | shrunken log2 fold change |
| --- | --- |
| RRIRERPPRLPRPRPRPGDAPRP | 0.106 |
| RRIRERPPRLPRPRPRPGDKPRP | -0.315 |
| RRIRERPPRLPRPRPRPGDRPRP | 0.172 |
| RRIRERPPRLPRPRPRPGEEPRP | 0.175 |
| RRIRERPPRLPRPRPRPGFDPRP | 0.0961 |
| RRIRERPPRLPRPRPRPGFIPRP | -0.256 |
| RRIRERPPRLPRPRPRPGFVPRP | 0.755 |
| RRIRERPPRLPRPRPRPGKMPRP | 0.0204 |
| RRIRERPPRLPRPRPRPGLDPRP | -0.0204 |
| RRIRERPPRLPRPRPRPGLFPRP | -0.0491 |
| RRIRERPPRLPRPRPRPGMEPRP | 0.00479 |
| RRIRERPPRLPRPRPRPGMQPRP | -0.328 |
| RRIRERPPRLPRPRPRPGPYPRP | -0.208 |
| RRIRERPPRLPRPRPRPGQPPRP | 0.0236 |
| RRIRERPPRLPRPRPRPGRHPRP | -0.0636 |
| RRIRERPPRLPRPRPRPGSMPRP | -0.343 |
| RRIRERPPRLPRPRPRPGVIPRP | -0.0985 |
| RRIRERPPRLPRPRPRPGWDPRP | 0.0203 |
| RRIRERPPRLPRPRPRPGWMPRP | 0.144 |
| RRIRERPPRLPRPRPRPHAQPRP | -0.0243 |
| RRIRERPPRLPRPRPRPHDLPRP | -0.343 |
| RRIRERPPRLPRPRPRPHDQPRP | 0.0804 |
| RRIRERPPRLPRPRPRPHECPRP | -0.0253 |
| RRIRERPPRLPRPRPRPHEQPRP | -0.0112 |
| RRIRERPPRLPRPRPRPHFYPRP | -0.0121 |

| Sequence | shrunken log2 fold change |
| --- | --- |
| RRIRERPPRLPRPRPRPHGAPRP | 0.0169 |
| RRIRERPPRLPRPRPRPHHQPRP | -0.318 |
| RRIRERPPRLPRPRPRPHIGPRP | 0.00581 |
| RRIRERPPRLPRPRPRPHIIPRP | -0.412 |
| RRIRERPPRLPRPRPRPHKGPRP | -0.194 |
| RRIRERPPRLPRPRPRPHKSPRP | -0.0459 |
| RRIRERPPRLPRPRPRPHMCPRP | -0.0653 |
| RRIRERPPRLPRPRPRPHRCPRP | -0.0136 |
| RRIRERPPRLPRPRPRPHRNPRP | -0.869 |
| RRIRERPPRLPRPRPRPHTIPRP | -0.217 |
| RRIRERPPRLPRPRPRPHVWPRP | 0.191 |
| RRIRERPPRLPRPRPRPHWPPRP | 0.132 |
| RRIRERPPRLPRPRPRPHYLPRP | -0.139 |
| RRIRERPPRLPRPRPRPHYNPRP | -1.12 |
| RRIRERPPRLPRPRPRPHYWPRP | -0.353 |
| RRIRERPPRLPRPRPRPICMPRP | -0.309 |
| RRIRERPPRLPRPRPRPICPPRP | -0.794 |
| RRIRERPPRLPRPRPRPIEKPRP | 0.00242 |
| RRIRERPPRLPRPRPRPIFLPRP | -0.288 |
| RRIRERPPRLPRPRPRPIGHPRP | -0.244 |
| RRIRERPPRLPRPRPRPIGIPRP | -0.123 |
| RRIRERPPRLPRPRPRPIGLPRP | -0.293 |
| RRIRERPPRLPRPRPRPIKTPRP | -0.139 |
| RRIRERPPRLPRPRPRPILIPRP | -0.0809 |
| RRIRERPPRLPRPRPRPIMIPRP | -0.246 |
